Assay: soluble fraction after stress (log2 fold change); higher = more stays soluble; pooled small domains, quantitative proteomics
Details: stress: 50 degC
Summary of the method: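 Pooled custom libraries of small protein domains were each held under stress at 50°C. The read-out, high-throughput quantitative proteomics, tracked how much of each protein stayed soluble. This is reported as a base-two log fold change used to indicate aggregation propensity. Higher values mean more protein remains in solution.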

| Sequence | soluble fraction (log2) |
| --- | --- |
| HMVEVTTDEITRPGAMVSGSVTFSDGVKAIWLIDEYGRPGLEPETPGYQPSESDLSEFEKHLRALLQ | 0.0647 |
| HMVEVVDAEKLEERLSKVFSAAVLLEIYNENPAHGKEYAYLFTARKNAVEEMIENGQMKRETWEAK | -0.963 |
| HMVFSKEELLFNSDSLLSLYPNDNKLLETILSEKIDHAVKNNDMSMYKEILVIDPKNPLANYHLLM | 0.0579 |
| HMVFTEEERAEYREKMLDAGFDLLKQYGMTHMSVAKITEAAGIGVSTFYNFFSSKEEYVYEVLQYRRRK | -1.25 |
| HMVGIVQKTFEPTGIAAEELMKTLKSDKSLDFGNVQILATPKSSTSRQVVVVSGRANDVDRVMMVLSNLDS | -0.108 |
| HMVGKIVVPHLEGKPAEMARDILARDGFKSVHEEVLPSAEFGAGRVVRTEPHAGTNVAKTDPVTIFVSVGL | -0.00887 |
| HMVGLTDLQRNVLVQIARGKSRQLISRTLKVTPAEISAALKVAQRRYRVASSTEVIVQALYDKTLSFHEIM | -0.625 |
| HMVIIPNILNKYKGLAFRQLEQVGLKIGDTIYEPNIQRDAVLRMQINGRSVQPGDQVMRFSVVDLVIG | -3.21 |
| HMVINKRELNVLSIYSRGSEKRAIILFPTGQTKLVKVGDTLNGGRVAAIGTTEIRYIKGGNNLVLKIPQ | -2.41 |
| HMVINVNEIIRRIKELKTFKTDRQVADFLGVSKATVSNWMARNSIDFPLLINKLDGVDLTWLLTGRGTPE | -1.16 |
| HMVIPATPTARRAKIAGLLADRSVRSQGELLTLLADAGIEVTQATLSRDLEALGAVKVRDGRGLVYAVPG | -0.0411 |
| HMVIQRQIPPLVTRMLDGLEQFIQLDMPFDLDTRLGNIEAVRANMDRSDVTSAEAYRQVLELYSIELQ | -0.2 |
| HMVISLREINLIGVYGRPNARRALVRLSNGRYVRVEVGSDLDGGKVTAIGDEALNFVKRGRTYAIQLPA | -1.55 |
| HMVITPESVKEQVLAIISKSPAQGFNYKQISKRLNINDPSERKMVSDILRELSESGTIEEINKGKYRAKV | -0.0556 |
| HMVKDYIQVTVNKEPVILKGKKDYIFIDIFNYIEFDLTIPKGSLYLLLNGKNAGYHDKLLDGDVIELGW | -1.72 |
| HMVKLDDLTGQDKASAEAAISNLGLKYSEQQEYSDEIEEGKVTRTDPGAGSTSLKAGDTVTVYISRGPE | 0.21 |
| HMVKLSATVKELLDFVIAKKTVTSSNVSKHFDISAQNASGRLKKLHATGLVLGQKEVAESGGLEFVYRS | -0.183 |
| HMVKLSDGIVEHIKSLIMAGRLKPGDKLPPEREFAATLGVSRTALREAVRTLSLMGLLDARQGEGTFVSG | -0.116 |
| HMVKPQANTIYKEYIKYRANLQNKNEFLSFSEYAKQKHNLEQMSEIMVDANLKEEMLETLKEMS | 0.0362 |
| HMVKSDLVGHRFILVEDVTPKLTPKYHYSGINWKLITTDNLVAGTRVEVIQVDVGKFHIKAIK | -1.65 |
| HMVKSIDEIYNEAVKSLANEDYDAAKKLFNYLINNFSDPDKFPLSLFWLAEIEFSSSNFDASKNYYMQ | 0.0746 |
| HMVKSSVTEVISMINALPVTVKPEDKADIISARMAYDTLTEDEKALVTNYEILTAAETRFNELIATT | 0.205 |
| HMVKTIINGEEKDFDAQDFQTFGDFLKKVIPEGQILKSLKINSKDVPIAFIDELKSATVDENITIEMELA | 0.429 |
| HMVLAEPLSERELDILRLLAAGDSNKEIAAVLYITEGTVKNHVTNILGKLDARDRTQAALRARELGL | -0.801 |
| HMVLGDQTFQSASAPKVFFGGDAAYGPKNIITAVAHGHDAAVSIDRFLHGEDVSKRPGPQVNLVS | 0.144 |

| Sequence | soluble fraction (log2) |
| --- | --- |
| HMVLRPDDVEDSLWREWVSHRKAKRAAVTEGVLKTFRQEATKASFTLADAMRKSIDRGWTGFEAEWVARET | -0.074 |
| HMVLSPAQVRRALMVSGLFTEARVARQLGVPMDLKQILRIILRNTPPQSAMARELESAIDEIESRNAMRD | -1.62 |
| HMVLSTRERMSNILATLKGGHFVNFSDLFTPEEGRLGVVVTFLAMLELIKESLLDIVQHEVLGPIHVKARV | -0.0744 |
| HMVLTGTIKKYNNERGFGFISTSNFGDVFFHIKDFQKGEQPIPGREVYFEVVKKENKKRAIHVYYSD | -1.02 |
| HMVLVSNYGEVVRKARERKGLDHGSLAMKISEKKSIITSVESGNMKPNEKLIKKLENFLNINLM | -1.33 |
| HMVMIPDLVGETIEDAKDILEGLGFEVEVRSEFPESDWGRPFARVTSLSPSAGQEVAKGTLVIIRSF | -0.288 |
| HMVMLIVMNHTASQADIDKVIEVVSGMGFTAAPIPGGERTAIGVLGNKGYVDDSTIRDLPGVQQAIHVSKP | 0.0615 |
| HMVMSVGENIAYFRKKLGLTQEMLSERIGVTAQAVSKWENGVTNPDISLLPRISEALGIGIGDLFD | -0.299 |
| HMVNAVKFAIEKMPYKYSSLLTLKYVMGYSGKEIAEITGLSETNVRQQLLKGRKLLESMLEE | -2.43 |
| HMVNGTPADPYDVLGVESSASPEELRAAWQTLVRQNHPDQLMARGVPLEAVKLAEARLVAINQAWDDLTK | 0.0363 |
| HMVNHVGITVSNLERSIQFYEALTGKKIANQDTIGGKRMAQTQGLADTLIKYANLHLDNLNIDLLEYVE | -0.386 |
| HMVNIAVMTVSDTRTEADDKSGSLLVSKIEGDGHVLADRAIITDDVPRIIAKLKEWIESPQVDVVVT | 0.0468 |
| HMVNINEVEVSRDLAHAKVFVTFVGDRTDEINTQALKVLNAAQGFLRSRIASNNHMRTTPRIHF | -0.663 |
| HMVNIPEIAKKFGKSTSEVFEQIQIGEKHEMEHTNDPKKARKIALDHLSDDMDYYKKLKKLG | 0.27 |
| HMVNLKQVELREHHPWVGHKIKELDISRHTLIVMIRRGDNAIVPNGDTLIKSGDIVFVFSKR | -1.05 |
| HMVNPHPVYRSWGLLYVEARDGDSLESIAKEFGFSVKKLAKYNEVPKDYPLEAGDIVYLEKKKK | -1.59 |
| HMVNPIDFYLLFRTELQRLAEHPITVDRLTEVTGLNKLQVLDWLKRAEQDGLVKKLNRPTRYQLN | -0.0401 |
| HMVPAMGSLTLIKGGVNLRNAPGGLTIAQLDRGLVLSYTKFVQKDGYTWYLVNSPKGTGYVRSDVVQLGS | -0.251 |
| HMVPDGFDQLTEREYQVAMAVGKGLNNKEIASQLGLGERTVKAHLTTTFEKLHVRDRVQLALIVNRL | -0.556 |
| HMVPDVVGKDYALAQAELEGANLVVAKGSSRYDDTLPAGVVLATDPKVGTVVKPGAKVTVILSK | 0.251 |
| HMVPLSMLTEGQIFRGQVLDITSQGIKIQLNPEQILFARLGEQVELNIGQQMAFQVRENKGDQLIIHPMQN | 0.0382 |
| HMVPVQLTPRELQVARLAAHGASSPEIAAELRVSRRTVDNQLGRVYAKLGIAGRAELAAALSRLPVSV | -0.0808 |
| HMVPVSIYAYNKIKTAILNNELMPGEKLVEASLAETLNMSRTPIREALRQLEQEGFVTYYPQKGSIVSH | -0.657 |
| HMVQAQGARIREARVQRGLSQAQLGEPRYSGSYISHIENGRRSPGTDVLAFIAARLGLEPGALDS | -0.504 |
| HMVQIFIPVVHDDHWFLIVFSREEDTFYVLDSLPSLSRISTINGIISTLKEHLQQASVGPQYSVKVLPVK | -0.172 |

Source: the domain aggregation screens of Martell et al. (2025)
